The target in the data set is T1, rSsp2 SM101 (Clostridium perfringens SM101 (type A), UniProt P21886 1-59).
T1 sequence: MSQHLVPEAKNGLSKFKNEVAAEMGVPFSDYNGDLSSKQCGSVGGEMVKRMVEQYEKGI
In words: EMSA; glutaraldehyde-fixed; preferred probe. Particulars: protein: recombinant; tags: His6; label: 3'-biotin; blunt. For orientation: In EMSA bound probe runs differently from free probe, usually more slowly.

B1: GC-rich probe (69.1% GC), Label-D2/Label-R2 (dsDNA)
DNA 1: CTGGCGACTCAGAAGGGGCTCGAACCCTCGACCTCCGGCGTGACAGGCCGGCACT
DNA 2: AGTGCCGGCCTGTCACGCCGGAGGTCGAGGGTTCGAGCCCCTTCTGAGTCGCCAG
B1: the binding result was “binds”.

The record behind these values is paper PMC2706996.
